Laboratory results from patent publication US7976843B2, “Method for screening peptides for use in immunotherapy” (Institut National de la Santa et de la Recherche Medicale …, priority 2000, dated 2011).
Where two headings read alike, the source gives them in different places.

Assays:
HLA A2.1 molecule [1] = target: T1, HLA A2.1 molecule (Homo sapiens, UniProt P04439, D140Y/D185E/D98H/E176V/E277Q/G131W/G231S/I119V/I121R/I166T/I218V/L300P/L318F/N151K/N90K/P208A/P217A/Q86G/Q94H/R138H/R169H/T345S); format: binding
[2] = system: RMAS-HHD targets loaded with peptide; test: Immunogenicity: CTL generation in HHD transgenic mice, 51Cr lysis of peptide-loaded targets; format: in vivo; conditions: for killing of RMAS-HHD cells loaded with natural peptide or its P1Y variant: CTLs induced in HHD mice sensitized with the natural peptide, FIG. 1; for percentage of HHD mice in which a CTL response is induced: mice sensitized with the peptide
HLA A2.1 molecule [3] = target: T1, HLA A2.1 molecule; test: Stability of the peptide/HLA A2.1 complex (DC50) on T2 cells, flow cytometry; format: binding; conditions: for DC50 Y1-DC50 WT: arrow in neighbouring cell gives direction
Method: For each incubation time, the cells are then labeled, as indicated above, with the BB7.2 antibody, and analyzed by flow cytometry in order to evaluate the amount of peptide/HLA A2.1 complex present at their surface. […] The DC50 (dissociation complex: DC) is defined as being the time required for the loss of 50% of the HLA A2.1/peptide complexes stabilized at t=0.

EL-4/HHD/neu tumor cells = test: Antitumor protection after peptide vaccination, EL-4/HHD/neu graft
EL-4/HHD cells = test: Antitumor protection after peptide vaccination, EL-4/HHD graft; conditions: 10 HHD mice, two injections two weeks apart; EL-4/HHD graft
[4] = native peptides, relative affinity vs reference peptide HIVpol 589, lower RA = stronger binding
[5] = HHD mice, 100 μg peptide s.c., responder: specific cytotoxicity >15% above unloaded targets
[6] = native peptides, time for loss of 50% of HLA A2.1/peptide complexes
[7] = native TERT peptides, reference peptide HIVpol 589

## VLYRYGSFSV [gp100 476, reference compound]
HLA A2.1 molecule [1]; [4]
  RA: 10.0
[2]
  killing of RMAS-HHD cells loaded with natural peptide or its P1Y variant: same efficacy
[2]; [5]
  Responders/total mice: 8/10
HLA A2.1 molecule [3]; […]
  DC50 Y1-DC50 WT: 2 h
HLA A2.1 molecule [3]; [6]
  DC50: 6 h

## LLDGTATLRL [gp 100 457, reference compound]
HLA A2.1 molecule [1]; [4]
  RA: 1.6
[2]
  killing of RMAS-HHD cells loaded with natural peptide or its P1Y variant: same efficacy
[2]; [5]
  Responders/total mice: 4/6
HLA A2.1 molecule [3]; […]
  DC50 Y1-DC50 WT: >2 h
HLA A2.1 molecule [3]; [6]
  DC50: 2 to 4 h

## YLTSIISAV [HER-2/neu 650Y1]
EL-4/HHD/neu tumor cells; 3 of 10 mice
  mice still alive at D70: 30%
EL-4/HHD/neu tumor cells; 10 HHD mice, two injections two weeks apart, EL-4/HHD/neu graft
  tumor size at D28: 100±99 mm^2
EL-4/HHD/neu tumor cells; ten mice per group
  number of mice showing no tumors at D28: 4 mice
HLA A2.1 molecule [1]
  RA: 0.2
HLA A2.1 molecule [3]
  DC50: 6 h

## FLSTLVHGV [mp 676]
HLA A2.1 molecule [1]; [7]
  RA: 1.2
HLA A2.1 molecule [3]; native TERT peptides
  DC50: >6 h

## AFHNVAREL [A9L]
HLA A2.1 molecule [1]
  RA, P1Y peptides: 7
HLA A2.1 molecule [1]; HIV 1 peptides, […]
  RA, Native peptides: >100
HLA A2.1 molecule [3]
  DC, P1Y peptides: >6 h

## LLDDEAGPL [HBV pol 28]
[2]; [5]
  Responders/total mice: 0/6
HLA A2.1 molecule [3]; […]
  DC50 Y1-DC50 WT: >2 h
HLA A2.1 molecule [3]; [6]
  DC50: <2 h

## TLEEITGYL [HER-2/neu 402]
HLA A2.1 molecule [1]; [4]
  RA: 19.0
[2]; HHD mice (also humans)
  immunogenicity (in words): nonimmunogenic
[2]; mouse, in vivo, sc
  Responders/total mice: 0/6
HLA A2.1 molecule [3]; […]
  DC50 Y1-DC50 WT: >2 h
HLA A2.1 molecule [3]; [6]
  DC50: <2 h

## YLIHHNTHL [HER-2/neu 466Y1]
HLA A2.1 molecule [1]
  RA: 1.4
HLA A2.1 molecule [3]
  DC50: 6 h

## QLLRSFFHFL [mp 545]
EL-4/HHD cells
  tumor size at D28: 489±209 mm^2
HLA A2.1 molecule [1]; [7]
  RA: 1.6
HLA A2.1 molecule [3]; native TERT peptides
  DC50: >6 h

## PLTFGWCFKL [P10L]
HLA A2.1 molecule [1]
  RA, P1Y peptides: 5
HLA A2.1 molecule [1]; HIV 1 peptides, […]
  RA, Native peptides: >100

## VIYQYMDDL [V9L]
HLA A2.1 molecule [1]
  RA, P1Y peptides: 8.6
HLA A2.1 molecule [1]; HIV 1 peptides, […]
  RA, Native peptides: >100
HLA A2.1 molecule [3]
  DC, P1Y peptides: <2 h

## RLRDLLLIV [R9V]
HLA A2.1 molecule [1]
  RA, P1Y peptides: 5
HLA A2.1 molecule [1]; HIV 1 peptides, […]
  RA, Native peptides: >100

## FLPWHRLFLL [Tyrosinase 207]
HLA A2.1 molecule [1]; [4]
  RA: >50.0
[2]; [5]
  Responders/total mice: 0/6
HLA A2.1 molecule [3]; difference between DC50 of P1Y variant and natural peptide
  DC50 Y1-DC50 WT: >4 h
HLA A2.1 molecule [3]; [6]
  DC50: 2 h

## ELVSEFSRM [HER-2/neu 971, reference compound]
HLA A2.1 molecule [1]; [4]
  RA: >70.0
[2]; mouse, in vivo, sc
  Responders/total mice: 0/6
HLA A2.1 molecule [3]; […]
  DC50 Y1-DC50 WT: 2 h
HLA A2.1 molecule [3]; [6]
  DC50: 2 h

## gp100 177Y1: P1Y variant of gp100 177 (YMLGTHTMEV)
[2]
  percentage of HHD mice in which a CTL response is induced: 75%

## MLLAVLYCL [Tyrosinase 1, reference compound]
HLA A2.1 molecule [1]; [4]
  RA: >60.0
[2]; [5]
  Responders/total mice: 4/23
[2]
  percentage of HHD mice in which a CTL response is induced: 17%

## AMLGTHTMEV [gp100 177, reference compound]
HLA A2.1 molecule [1]; [4]
  RA: 0.5
[2]
  killing of RMAS-HHD cells loaded with natural peptide or its P1Y variant: same efficacy
[2]; mouse, in vivo, sc
  Responders/total mice: 3/5
HLA A2.1 molecule [3]; […]
  DC50 Y1-DC50 WT: 2 h
HLA A2.1 molecule [3]; [6]
  DC50: >6 h

## TDQVPFSV [gp100 209, reference compound]
[2]; mouse, in vivo, sc
  Responders/total mice: 4/6
HLA A2.1 molecule [3]; […]
  DC50 Y1-DC50 WT: 2 h
HLA A2.1 molecule [3]; [6]
  DC50: 4 h

## VLDVGDAYFSV [V11V]
HLA A2.1 molecule [1]
  RA, P1Y peptides: 2.5
HLA A2.1 molecule [1]; HIV 1 peptides, […]
  RA, Native peptides: 4.5
HLA A2.1 molecule [3]
  DC, P1Y peptides: 3.5 h
HLA A2.1 molecule [3]; HIV 1 peptides
  DC, Native peptides: 2 h

## KTWGQYWQV [gp100 154]
[2]
  killing of RMAS-HHD cells loaded with natural peptide or its P1Y variant: same efficacy
[2]; [5]
  Responders/total mice: 7/9

## YLVPQQGFFC [HER-2/neu 1023, reference compound]
HLA A2.1 molecule [1]
  RA (bound stated in text): > 5
HLA A2.1 molecule [1]; [4]
  RA: 19.6
[2]; mouse, in vivo, sc
  Responders/total mice: 5/10
HLA A2.1 molecule [3]; [6]
  DC50: 4 h

## ALVEICTEM [A9M]
HLA A2.1 molecule [1]
  RA, Native peptides: 5
  RA, P1Y peptides: 1.75
HLA A2.1 molecule [3]
  DC, Native peptides: 2 h
  DC, P1Y peptides: >6 h

## gp100 570Y1: P1Y variant of gp100 570 (YLADTNSLAV)
[2]
  percentage of HHD mice in which a CTL response is induced: 100%

## gp100 457Y1: P1Y variant of gp100 457 (YLDGTATLRL)
[2]
  percentage of HHD mice in which a CTL response is induced: 75%

## ALCRWGLLL [HER-2/neu 5]
[2]; [5]
  Responders/total mice: 5/6

## PLVKLWYQL [P9L]
HLA A2.1 molecule [1]
  RA, P1Y peptides: 4.6
HLA A2.1 molecule [1]; HIV 1 peptides, […]
  RA, Native peptides: >100
HLA A2.1 molecule [3]
  DC, P1Y peptides: <2 h

## HER-2/neu 369Y1: P1Y variant of HER-2/neu 369 (YIFGSLAFL)
[2]
  percentage of HHD mice in which a CTL response is induced: 100%
